The record followed here is patent publication US20150337037A1 (MSM PROTEIN TECHNOLOGIES, published 2015).

Numbering of substitutions follows the chain as printed. Some results are limits rather than exact numbers.

Assay [1] addresses T1, human chemokine receptor CCR6 (human, UniProt P51684 1-374).
T1 construct: whole, on cells; gene was synthesized (codon-optimized); a C-terminal tag may be present on the expressed protein; also called CCR6 human; human CCR6
T1 sequence (looked up): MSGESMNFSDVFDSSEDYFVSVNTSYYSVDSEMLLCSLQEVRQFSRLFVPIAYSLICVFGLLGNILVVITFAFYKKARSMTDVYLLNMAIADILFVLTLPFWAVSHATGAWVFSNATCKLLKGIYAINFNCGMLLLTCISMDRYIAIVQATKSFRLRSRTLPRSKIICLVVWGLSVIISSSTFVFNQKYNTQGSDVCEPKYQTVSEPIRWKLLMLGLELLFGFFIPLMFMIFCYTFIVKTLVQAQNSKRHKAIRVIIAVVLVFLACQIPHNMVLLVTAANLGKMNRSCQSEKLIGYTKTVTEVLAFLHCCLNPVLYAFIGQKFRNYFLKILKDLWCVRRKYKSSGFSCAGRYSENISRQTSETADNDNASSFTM
The assay can be described thus: flow cytometry on cells expressing the target, antibody titration.

Assay [2] has as its target T2, cynomolgus monkey CCR6 (cynomolgus monkey (Macaca Fascicularis)).
T2 construct: whole, on cells; gene derived from a total RNA library; also called CCR6 cyno; cyno CCR6
The description is as above.

Assay [3] has as its target T1, human chemokine receptor CCR6. The assay can be described thus: cell-based or functional assay.
Assay [4] has as its target T3, mouse CCR6 (mouse, UniProt O54689 1-367).
T3 construct: whole, on cells; gene derived from a cDNA library; also called CCR6 mouse
T3 sequence (looked up): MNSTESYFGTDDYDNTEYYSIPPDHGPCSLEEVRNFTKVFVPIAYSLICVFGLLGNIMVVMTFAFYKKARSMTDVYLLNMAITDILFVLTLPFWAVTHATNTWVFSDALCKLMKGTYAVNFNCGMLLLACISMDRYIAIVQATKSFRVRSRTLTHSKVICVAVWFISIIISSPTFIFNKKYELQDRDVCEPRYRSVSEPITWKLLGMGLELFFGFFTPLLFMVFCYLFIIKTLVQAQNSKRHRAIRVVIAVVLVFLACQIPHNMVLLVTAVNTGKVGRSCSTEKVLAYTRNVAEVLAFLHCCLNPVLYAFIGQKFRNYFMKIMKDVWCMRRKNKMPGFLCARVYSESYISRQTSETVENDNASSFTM
The assay can be described thus: flow cytometry on cells expressing mouse CCR6. In general terms: Flow cytometry measures light scatter and fluorescence of single cells or particles in a stream.

Assay [5] has as its target T1, human chemokine receptor CCR6. The assay can be described thus: flow cytometry on cells expressing the target, IgG1 titration (repeat of Table 2).
Assay [6] has as its target T2, cynomolgus monkey CCR6. The assay is described as above.
Assay [7] concerns the target T3, mouse CCR6. The assay can be described thus: flow cytometry on CHO cells expressing mouse CCR6. As for the experimental part:
Cells have been incubated with fully human anti-human CCR6 antibodies in IgG1 format. After washing out residual unbound antibodies the cells were incubated with commercial anti-human Fc antibodies conjugated to the fluorescent dye phycoerythrin (IgG-PE). In more details, the cell staining procedure was: […] cell suspension in 10 μl FACS buffer (1×PBS, 2.0% FBS, 0.2% sodium azide) was mixed with 10 μl of 200 nM the corresponding anti-CCR6 MAB and incubated on ice for 30 min. Washing step—after the incubation 150 μl of FACS buffer was added to the cell sample, the samples were mixed gently by up-down pipetting the cell suspension. Then the samples were centrifuged at 1100 rpm for 5 minutes, and supernatants were removed. Washing step was repeated ones. Then 10 μl of anti-human PE-(Fab)2 form Jackson Immuno Research Lab. #709-116-098 diluted 40 times in FACS buffer were added to the cells and the cells were re-suspended by up-down pipetting. After 20 min. incubation on ice in dark the washing step was repeated twice. The washed cells were mixed with 100 μl of FIX buffer (0.5% Paraformaldehyde solution in PBS). Fixed samples were stored in dark on ice and analyzed by FACS on Guava PCA-96 flow cytometer.

The target of assay [8] is T1, human chemokine receptor CCR6. The assay can be described thus: flow cytometry on cells expressing the target, IgG1 titration, anti-human Fc-PE.
In assay [9] the target is T2, cynomolgus monkey CCR6. The description is as above.
The target in assay [10] is T3, mouse CCR6. The assay can be described thus: flow cytometry on CHO cells expressing mouse CCR6. This is another data set of the same source.
Assay [11] concerns the target T4, human CXCR2 (human, UniProt P25025 1-360).
T4 construct: whole, on cells
T4 sequence (looked up): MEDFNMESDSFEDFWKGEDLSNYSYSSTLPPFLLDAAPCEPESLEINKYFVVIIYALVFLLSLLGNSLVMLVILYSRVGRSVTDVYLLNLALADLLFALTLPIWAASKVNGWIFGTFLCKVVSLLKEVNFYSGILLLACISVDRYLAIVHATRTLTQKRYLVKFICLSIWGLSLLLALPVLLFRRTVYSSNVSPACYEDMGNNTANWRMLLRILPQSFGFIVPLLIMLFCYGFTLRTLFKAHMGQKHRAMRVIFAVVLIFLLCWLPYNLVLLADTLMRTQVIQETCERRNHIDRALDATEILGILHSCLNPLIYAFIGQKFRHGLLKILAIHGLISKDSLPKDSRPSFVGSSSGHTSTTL
The assay can be described thus: flow cytometry on GPCR-expressing cell panel.

Assay [12] concerns the target T1, human chemokine receptor CCR6. The assay can be described thus: flow cytometry on R1610 cells expressing human CCR6, IgG1 titration, anti-human Fc-PE.
Assay [13] deals with T3, mouse CCR6. The assay can be described thus: flow cytometry on cells expressing the target, IgG1 titration (repeat of Table 2).
Assay [14] addresses T1, human chemokine receptor CCR6. The assay can be described thus: cell-based or functional assay. The source holds these as a separate data set.
Assay [15] has the same target. The assay can be described thus: cell-based or functional assay. The source holds these as a separate data set.
Assay [16] addresses T5, human CXCR6 (human, UniProt O00574 1-342).
T5 construct: whole, on cells
The assay can be described thus: flow cytometry on GPCR-expressing cell panel.

The target of assay [17] is T6, mouse CCR7 (mouse, UniProt P47774 25-378).
T6 construct: whole, on cells; also called CCR7ms
T6 sequence (looked up): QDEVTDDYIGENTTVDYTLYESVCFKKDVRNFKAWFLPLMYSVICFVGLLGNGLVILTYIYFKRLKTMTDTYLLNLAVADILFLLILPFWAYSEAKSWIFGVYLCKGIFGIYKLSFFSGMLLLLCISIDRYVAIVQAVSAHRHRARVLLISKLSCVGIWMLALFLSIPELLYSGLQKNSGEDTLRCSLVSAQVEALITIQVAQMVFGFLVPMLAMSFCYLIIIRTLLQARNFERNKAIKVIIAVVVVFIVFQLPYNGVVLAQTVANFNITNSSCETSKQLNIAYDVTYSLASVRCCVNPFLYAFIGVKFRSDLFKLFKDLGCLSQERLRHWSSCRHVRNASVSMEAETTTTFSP
The assay can be described thus: flow cytometry on GPCR-expressing cell panel.

Assay [18] deals with T3, mouse CCR6. The assay can be described thus: flow cytometry on cells expressing the target, IgG1 titration, anti-human Fc-PE.

T5 sequence (O00574 whole entry): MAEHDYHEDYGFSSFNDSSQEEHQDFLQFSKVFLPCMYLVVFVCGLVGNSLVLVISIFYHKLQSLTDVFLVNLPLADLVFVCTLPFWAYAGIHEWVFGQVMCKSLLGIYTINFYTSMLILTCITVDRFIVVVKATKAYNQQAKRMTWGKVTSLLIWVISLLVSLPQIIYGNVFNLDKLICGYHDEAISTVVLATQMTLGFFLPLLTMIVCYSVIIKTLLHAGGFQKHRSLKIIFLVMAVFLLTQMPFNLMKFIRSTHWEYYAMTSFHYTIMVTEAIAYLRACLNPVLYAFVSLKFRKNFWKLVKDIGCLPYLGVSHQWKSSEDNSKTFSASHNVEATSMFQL

B1: MSM-R627/33 (antibody, V domains shown)
VH: EVQLLESGGGLVQPGGSLRLSCAASGFTISSYMAWVRQAPGKGLEWVSSISPSSGSTYYADSVKGRFTISRDNSKNTLYLQMNSLRAEDTAVYYCARSMWSKQMHRYGLDYWGQGTLVTVSS
VL: EIVLTQSPGTLSLSPGERATLSCRASQSVSSSYLAWYQQKPGQAPRLLIYGASSRATDIPDRFSGSGSGTDFTLTISRLEPEDFAVYYCQQSYSDPITFGQGTKVEIK
notes: also called MSM 627 HC/JSJ R633LC
Turning to B1, the values for the EC50 in assay [1] and in assay [2] were 2.6 nM and 2.9 nM, respectively. Besides, the “IC50, nM (Ca-Flux) CCR6/CCL20” value in [3] was over 500 nM.

B2: MSM-R633 (antibody, V domains shown)
VH: EVQLLESGGGLVQPGGSLRLSCAASGFTFTSSYMAWVRQAPGKGLEWVSSIAPSSGSTYYADSVKGRFTISRDNSKNTLYLQMNSLRAEDTAVYYCARSRWEWYYHSSHGLDYWGQGTLVTVSS
VL: B1 VL
As for B2, the EC50 (in general, the concentration needed to bring the measured effect to its halfway point) in assay [1] worked out at 7 nM; in assay [2], 7.5 nM. In addition, the binding result in assay [4] is “no binding”.

B3: MSM-R601 IgG1 (antibody, V domains shown)
VH: EVQLLESGGGLVQPGGSLRLSCAASGFTFSSYAMSWVRQAPGKGLEWVSAISGSGGSTYYADSVKGRFTISRDNSKNTLYLQMNSLRAEDTAMYYCARHGYSATRQGLDYWGQGTLVTVSS
VL: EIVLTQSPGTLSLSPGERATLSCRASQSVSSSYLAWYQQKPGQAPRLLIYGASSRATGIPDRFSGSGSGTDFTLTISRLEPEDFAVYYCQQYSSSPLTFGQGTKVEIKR
notes: Fully human IgG1 made in transiently transfected CHO cells; HC AA / LC AA entries are full chains
B3: the EC50 in assay [5] is 25 nM; in assay [6], 14.5 nM; in [8] it was 25 nM; in assay [9] it was 14.5 nM. The binding result in assay [7] is on record as “no binding”.

B4: MSM-R625 (antibody, human IgG1, kappa, V domains shown)
VH: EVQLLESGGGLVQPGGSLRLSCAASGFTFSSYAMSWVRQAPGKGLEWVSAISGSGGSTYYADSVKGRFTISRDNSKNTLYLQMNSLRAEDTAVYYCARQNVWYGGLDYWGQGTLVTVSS
VL: EIVLTQSPGTLSLSPGERATLSCRASQSVSSSYLAWYQQKPGQAPRLLIYGASSRATGIPDRFSGSGSGTDFTLTISRLEPEDFAVYYCQQYSYAPITFGQGTKVEIKR
Take B4: the EC50 is 1.6 nM in [1] and 2.6 nM in [2]. Also, the binding result in assay [4] is recorded as “no binding”.

B5: MSM-R614 IgG1 (antibody, V domains shown)
VH: EVQLLESGGGLVQPGGSLRLSCPASGFTFTRSAMSWVRQAPGKGLEWVSYINSSGGGTYYADSVKGRFTISRDNSKNTLYLQMNSLRAEDTAVYYCARARFIWGFDYWGQGTLVTVSS
VL: B4 VL with Y92W, S93Y, Y94W, I97V
notes: Fully human IgG1
As to B5, the EC50 in assay [5] is 2.5 nM; in [6], 3 nM; in [12], 2.5 nM; in assay [9] it was 3 nM. Besides, the binding result is “no binding” in assay [10] and “binds” in assay [11].

B6: MSM-R605 IgG1 (antibody)
heavy: not shown
light: EIVLTQSPGTLSLSPGERATLSCRASQSVSSSYLAWYQQKPGQAPRLLIYGASSRATGIPDRFSGSGSGTDFTLTISRLEPEDFAVYYCQQSRATPLTFGQGTKVEIKRTVAAPSVFIFPPSDEQLKSGTASVVCLLNNFYPREAKVQWKVDNALQSGNSQESVTEQDSKDSTYSLSSTLTLSKADYEKHKVYACEVTHQGLSSPVTKSFNRGEC
notes: Fully human IgG1
Regarding B6, the EC50 came out at 1.6 nM in assay [13]; 1 nM in [5]; 1.8 nM in assay [6]; 1.6 nM in [18]; 1 nM in assay [8]; 1.8 nM in [9]. For the same molecule, in assay [14], the “Ca-Flux IC50, nM CCR6/CCL20” value was found to be 1.5 nM. Further, the “IC50, nM CCL20-Ca-Flux” value in [15] was found to be 1.5 nM. For the same molecule, the binding result in assay [16] and in [17] was “binds” in each case.
